# Patent US20030211470A1
# Experiments:
# [1] = molecular target: HIV-1IIIB gp120/gp41 stably expressed on CHO cells (HIV-1 IIIB); assay: cell-based or functional assay
# [2] = molecular target: recombinant gp120 from the laboratory-adapted strain HIV-1LAI (HIV-1 LAI) (UniProt P03377); assay: modified ELISA; gp120 captured on plate, CD4-IgG2 titrated, 1 h at 37 C, 50% of maximal binding
# [3] = molecular target: recombinant gp120 from the primary isolate HIV-1JR-FL (HIV-1 JR-FL) (UniProt P20871); assay: as above
Substance,"IC50 (nM), syncytium inhibition [1]","IC50 (µg/ml), syncytium inhibition [1]","Relative Potency (mass), relative to sCD4 [1]","Relative Potency (molarity), relative to sCD4 [1]",EC50 [2],EC50 [3]
CD4-gamma2 chimeric heavy chain homodimer (Fc fusion),40 nM,4.03 µg/mL,–,–,–,–
CD4-IgG2 chimeric heterotetramer (Fc fusion),9 nM,1.81 µg/mL,5.1 fold,22.2 fold,1.25 nM,0.64 nM
